Consider 21 sequences from a protein production outcome set (Wang et al. 2014).

The data set can be described thus: label from the status in PepcDB records.
Take “MGDALSLLQQADRLHRQLLRTGPAQAPCWEPPVDMIETESAVLIYVALPGVAAGDVAVRFDPDGISISGVRPLPALRNARIHGLEIPYGRFQRRIRLPLHALEPEAPTLADGCLTLTLKKLREAPLEHHHHHH”: the protein production entry is recorded as “not failed”.
In the case of “MGDFDPNKPVVISEFSPKEGGLGTRMLLYGENFGSDISKIKVTIGGQDSKVVGAKGKSLYCVVPAKAYDGDIKLSILNDEGEEIANTEANEKFVYQKKMLVTTFLGTMYDGNTKYDLKDGPFDDCGGFGGAVWLSFDPKNHNHLYLVGEQHPTRLIDFEKEYVSTVYSGLSKVRTICWTHEADSMIITNDQNNNDRPNNYILTRESGFKVITELTKGQNCNGAETHPINGELYFNSWNAGQVFRYDFTTQETTPLFTIQDSGWEFHIQFHPSGNYAYIVVVNQHYILRSDYDWKTKRLTTPYIVCGQQGAKDWVDGVGKKARMHAPRQGTFVKNPAYKGSSDEYDFYFCDRENHCIRILTPQGRVTTFAGRGSNGTSGYNDGDLRQEARFNHPEGIVYDEERECFFIGDRENRRIRKIGLEHHHHHH” it was “failed”; in that of “MGDMIFGILTWLPGLILAITLHEAAHGYVASALGDQTARLLGRVTLNPIRHVDPFGTLVLPGLLFLVGAPFLFGWAKPVPVDYRNLRHPKRDMAWVALAGPGMNIFLAVVSAAALHGALLLPDPAADWLITTLQKSVLINCVLAVFNMIPVPPLDGGRVLVGILPMRAAVVVARMERVGMLALIGVIFLLPLALSQFGVDFDPFSRIIGPVVRALLGAVYTTAGIPLF”, “failed”.
The result for “MGDRIAVQAEPTPAKLRGAASGDLVMRKVCMQQWRPTAPRGEYVSTEWSAGYVTDVNYTFGYYGELNPLRCRLPLLTVGRHAPKIENACELGFGQGLSVSIHAAAQPGINWYGTDFNPSQAAFAAEMVRLSGAEAKLYDEAFAEFCNRKDLPDFDFIGLHGIWTWISDQNRHVLVDFIRRKLRPGGVLYISYNTLPGWSSSAPIRHLMKRHADVMGAPGQGVIGQTDAALNFIDQFLALDPLYAKVNPGAVERLKQVKAQDRKYLAHEYMNRDWHPMYFADVENWLGDAKVGFACSAHVLDNLYDLNMTPQQTEFMRDVSDVSLRETIRDFCMNQQFRRDYWVRGVRALIGHEQVAAMREERVVMTVAQADLPTKVRGVIGEATLNDDVYQPLFEILLDHKPHSVLELETHLASKSLHFGQLSSALTILLGLGVITTAAAAQDVSKAKARTLALNKTIARRSLSVGDIAYFASPITGGGITASRFAQLFWLSRQNGGKTAEDWASFAYQVLQGQGQAIIKDGATLQGEDNLTELRAQATHWGAHVLPIWNALGV” reads “failed”.
The result for “MGEKKGLSFFEKYLSLWVALCIVLGILIGKFMPSLPRTLSKLTIANVNMAIAVLIWAMIYPMMVKVDFSAIKRVHKGQMLKGLIVTWVTNWLIKPFSMFLISSFFIGTIFSMKLGLIDPSLAKEYIAGAILLGAAPCTAMVFVWSYLADGDPLYTLVQVATNDIIILFAFAPIVGFLMGLNKVPVPYDTLLLSVVLFVVIPLSAGYLSRRYILKTKGHKWFEQEFLPKLSTISIVGLLLTLILLFSFQGEIILENPLHIALIAIPLTIQTYFIFAIAYGWAWIWKLPHKVAAPASFIGASNFFELAVAVAIALFGLDSGAALATVVGVLEEVPIMLSLVWIANKTRHFFTAKFETGSGSKAWALLRNSLPYYPYCPNHEDIRKDTYKQMNLYPVLFFLG” reads “failed”; that for “MGEMTLAFIEEQYKELDNLNNKENPAVLTRNTATGELLVRKIIPISFAPVLEELKKLSSNYLPKIEVMIPNGSELIVYEEYINGKNLADLMKVNAPFDADEVTGLMLMLSDALTELHTNAIIHRDIKPSNIMISSDGVLKLIDFDASRVFEVGKNQDTVNLGTIGYAAPEQYGYSQTDARSDIYSIGVLMLELLRGKNNLPDKETATSLEKIAMQAASFDPEQRFQTIQEFRTAIKNDSLGPTFVSELTNLSDFATIEDSADEINWATSTDEYEKDFIPWYKHIPGFRTGHTWKMVVAVLGYIFMAFGLFTPPTEGVKMNNIENFFANFFLIFPAFIIFTNLCGIWSKLPLLKSSSKGTRKVGIVVYIFVCIMIYGIYTEIFS”, “failed”.
As for “MGEYCEKDFRSLQRCAEMNNIRIFKFLVILYSLLLIASSFVYYYREDIYIRPESYFYLLTLAVGVTFAQIIFFGRNSRSEVKFLIFVEVLLVALSFTLTQQALYKTVLGRDPWFHWILVEEIVKRGSIPPYEQIPIPYVRMPNFHLVIASGIVLTNLSYKWAQVLFAGFPTLILLMLVAFLYSKKLFDDQVGLVSILLVAISDNVLDMVGKNIVPNTLGVALAFLIFYLIYFREYHNLMIKFLSVLVAIALAFMHTVSLTFLIWQIFVISILSLILKDKSAKFYLAHFAFLIVSALFVWGIYSGFYLKSLVIIFKQLFIYGFDIERYEAKLPTTFLDAVIARSGMVLYFAIAGIITFYLLVKTLKRRAFGIKLSTLSSILATISILAGAVSFLTPALSGIAHRFWYYGEVLSSAFVGSVLANLYERKKVIIVFNLIFICALSMLMFKANVANDDNPLVPYYSQRTGWHDSEIEAGKFVISKQGNIPIASDWDYSWNLRYLKTSLMASGALKDINRVTPKTFEEVKNCNCLFVFRKDLLENRLFYLGGRWTQTPHLPLSTLNLVIKELSENEGIIYNNNNILIMHLV”, the protein production entry is “failed”.
For “MGEYYHATVNGVVEYGAFVDLSEHVSGLIHESTYSGDPDLAVDDDVIVHLSAVRDNGDLSFEFVDPEEYRTEQRSLEHHHHHH”, the protein production entry is on record as “failed”.
In the case of “MGFLDKVEKSIEGAVSGVFARAFRGEVEPVEIAGRLQRELDSEAQILSRDKSLVPNDFVVRLSSRDYERLVPYTKTLNAEIIPTLRDHASERHYVFNGPIHIRYDLDDALPVGKFTVLTGENHAKAVSDRRAPLVLEVDGVRHPLTPPGLTIGRGSDADIRINDPGISRLHARINVWPQGNDIGLSIEDLDSTNGVTVNGVKVTSTELGDGSRIEIGSTRMLVHSPTRI” it was “failed”; in that of “MGFTDSIREHVREHRTGMVHDLMFAVVWVAIVNFLFSAVFTDAPSWAFYMFMLAGIPAYFGFFFSLSMARAQQDSQ”, “failed”.
The result for “MGFTELNSVEHYIIHQISGVNLNDAQCKNQVSEPQATYALQWQFKSSEQLGRDVNEVLVESELVKALIRLNPEIEANPHLADEVIHKLRAILISVNQVGLVKANEEFFAWMTGEKTMPFGENNRHVPVKLIDLEDLTRNGYVVTNQFRIHHRETKIPDVVLMINGIPVVVGEAKTPIRPSVSWLDGAHEVHNIYENAVPQLFVPNILSFATEGKELFYGAIRCPLEFWAPWRTEEDDNSKGIGQVSKALGLTEIGKELIDLLSPVRLLDIMRNFSLFTTNKKKQRIKVIPRFQQYEGANKIVERVIEGKIKKGLIWHFQGSGKSLLMVFAAQKLRRTAQLKSPTVIVLVDRTDLDTQISGTFNAADVANVESTDSIKELQRMLERDTRKIIISMIHKFRDAKPNMNTRENIIVLVDEAHRTQEGDLGRQMRAALPNAFLFGLTGTPVNKADKNTFWAFGAEEDKGGYMSRYTFHDSIRDEATLPLHFEPRLVDVHVDKEALDKAFKDFKESAALSDEEADALNQKSAKMSAFLKSPERVEKIVEDIAIHFMDKVEPHGFKAMVVTPDREACVQYKEELDKHFPESASKVVISTSANDDFEFKQKWGVDKSQQEKLVDEFNDEKSDLKFLVVTAKLLTGFDAPICQTMYLDKSIKDHTLLQAICRTNRLYPNKTFGCIVDYFGVFDDAAKALEFDEESVQQVISNLSELRSKLPQAMQDTLAHFIGVDRSLEGFEGLEAAQNAIGDNDKKDAFALDFKYLAKLWESLSPDSVLDEYNEDYKWLAQVYESVKPASDNIGKLLWLALGAQTTQLIHDNVHVGDVHNLEEFVLDADVIENIFNNPDPRKIKQLEKELAKRFKDRGDLPVFKSLSERLEELRDKAEKGLIASIDFVKELCKIAKETVQAEKDLDDELQEKTPQAALTDLFLELKDDQTPAVVERIVTDIDAIVRIVRFPGWQTTTGGEREVQKSLRKALLKYKLHTDQTLFDRAYGYIKEYY” reads “failed”; that for “MGGATSGAVSSLNSRLALAHTPLLNTPQKPVDCRPHRTRTSDSAPMELHYRITPAHTEAWIAEPLKQELLKDDQQHVRAMSTFARWQSRFIGPVMFTLCLIGGCLSIYFPERNFTAEKVIAMVAFALIFIPLWWRFSGRWIKHLQARIAATPIKPQAPLRGLSQRLIETRLRAVEGTYCLNFDDQGFTLLNARGGQSSLAWKQIASVQEIPDFYLVADADMERQGVACFIAKHTDLMPTEAYQQGLQAFLSQCPAALPAH”, “failed”; that for “MGGDLRKCSFIKLEAHQNRVMTCVWCNKKGLLATSGNDGTIRVWNVTKKQYSLQQTCVFNRLEGDAEESLGSPSDPSFSPVSWSISGKYLAGALEKMVNIWQVNGGKGLVDIQPHWVSALAWPEEGPATTWSGESPELLLVGRMDGSLGLIEVVDVSTMHRRELEHCYRKDVSVTCIAWFSEDRPFAVGYFDGKLLMGTKEPLEKGGIVLIDAHKVKTIFFMLAFLFCLVFCVYVF”, “failed”.
The result for “MGGEDDELKGLLGLPEEETELDNLTEFNTAHNKRISTLTIEEGNLDIQRPKRKRKNSRVTFSEDDEIINPEDVDPSVGRFRNMVQTAVVPVKKKRVEGPGSLGLEESGSRRMQNFAFSGGLYGGLPPTHSEAGSQPHGIHGTALIGGLPMPYPNLAPDVDLTPVVPSAVNMNPAPNPAVYNPEAVNEPKKKKYAKEAWPGKKPTPSLLI” reads “not failed”.
Take “MGGFRFHQYQVVGRALPTENDEHPKIYRMKLWGRNEVCAKSKFWYFMRKLKKVKKSNGQMLAINEIFEKNPTTIKNYGIWLRYQSRTGYHNMYKEYRDTTLNGGVEQMYTEMASRHRVRFPCIQIIKTATVPAKLCKREITKQFHNSKIKFPLVFRKVRPPSRKLKTTYKASKPNLFM”: the protein production result is “failed”.
The result for “MGGLFVTPAKAVKTTNYAEEIAALQPGTTPEEIMKSASQIAKQQHVKQDVILKQFYKEITADKAEGDRLAKESGMSIMGGSSGTKKLPTSAKGNIYYTNSYTAYYNHGHVGMYSAADKIVESVPSDGVRQIAYNARDVEDNSIVQTVSVSSSQKTAAADWAVSKVGDPYSFNFVNNRNTGHDGAKNCSKLLWSAFLLKAGIDIDSNGGLGVYPRDITSSSYTTTIMTIYLEHHHHHH” reads “failed”; that for “MGHHHHHHENLYFQSHERLSEKKIKNLLTSKQQRQQYEIKQRSMLRHLAELRRHSRFRRLCTKPASSSMPASTSSVDRRTTRRSTSQTSLSPSNSSGYGSVFGCEEHDVDKIPSLNGFAKLKRRRSSCVGAPTPNSKRSKNNMGVIAKRPPKGEYVVERIECVEMD”, “failed”; that for “MGHHHHHHENLYFQSHINEQEREIEKLKRQMAEYGAIIKSLQFRQNSLEDTFIPDLTPKVEPSVNPTGCLLGSNAVHLMRDIKKECDYLGIPDPVPATKPTTQAQDDSQKKAKRSCFGRLFTGPFRRGTSAMKTADEYEKDDRLEELYAQLERDPDP”, “failed”.
The result for “MGHHHHHHSHCDSDCLWVGLAGPQILPPCRSIVRTLHQHKLGRASWPSVQQGLQQSFLHTLDSYRILQKAAPFDRRATSLAWHPTHPSTVAVGSKGGDIMLWNFGIKDKPTFIKGIGAGGSITGLKFNPLNTNQFYASSMEGTTRLQDFKGNILRVFASSDTINIWFCSLDVSASSRMVVTGDNVGNVILLNMDGKELWNLRMHKKKVTHVALNPCCDWFLATASVDQTVKIWDLRQVRGKASFLYSLPHRHPVNAACFSPDGARLLTTDQKSEIRVYSASQWDCPLGLIPHPHRHFQHLTPIKAAWHPRYNLIVVGRYPDPNFKSCTPYELRTIDVFDGNSGKMMCQLYDPESSGISSLNEFNPMGDTLASAMGYHILIWSQEEARTRK” reads “failed”.
The result for “MGHHHHHHSHGHAAVIGWKDLAYAGVIDSGGVCENIIAIPNPGTEPLNVAAVLCEGLDVVVYKGPEISLSPTRARPLLGKLRQGTAALVMVGTKVSSPALSVDAEITDYVGIGAGSGRIRGVEMQVRAVSKTHGVRSGKVLISRP” reads “failed”; that for “MGHHHHHHSHGQLVRGKVCEYSTDGAYIDIGGKAPAFLPKREAALHAVLDLEAHLPKDEELEFLVIRDQNEDGQVTVSLRA”, “failed”.
